The text below walks through data of article PMC4301630, “Dynamic Growth and Shrinkage Govern the pH Dependence of RecA Filament Stability” (PLoS ONE, 2015).

The series concerns the molecule itself. As to the kind of experiment: single-molecule FRET (Cy3 and Cy5 on the DNA, TIRF microscopy); partial duplex DNA with a 60 nt 3' single-stranded overhang immobilised on a PEG-coated quartz slide; dyes 10 nt apart at the 5' side of the overhang report monomers joining and leaving the 5' end of the RecA filament; 1 uM RecA (0.5 uM RecAΔC17), 1 mM ATP, 10 mM Mg(OAc)2, 100 mM NaOAc, 10 mM Tris-OAc, Mes or Mops, pH 6.0 to 8.0, room temperature; ….

B1: RecA protein (wild type) (natural protein, UniProt P0A7G6 1-353, looked up)
chain: MAIDENKQKALAAALGQIEKQFGKGSIMRLGEDRSMDVETISTGSLSLDIALGAGGLPMGRIVEIYGPESSGKTTLTLQVIAAAQREGKTCAFIDAEHALDPIYARKLGVDIDNLLCSQPDTGEQALEICDALARSGAVDVIVVDSVAALTPKAEIEGEIGDSHMGLAARMMSQAMRKLAGNLKQSNTLLIFINQIRMKIGVMFGNPETTTGGNALKFYASVRLDIRRIGAVKEGENVVGSETRVKVVKNKIAAPFKQAEFQILYGEGINFYGELVDLGVKEKLIEKAGAWYSYKGEKIGQGKANATAWLKDNPETAKEIEKKVRELLLSNPNSTPDFSVDDSEGVAETNEDF
notes: RecA protein, wild type, bought from New England Biolabs; Forms helical filaments of many monomers on single-stranded DNA with ATP or ATPγS; the number of copies in the filament is not fixed; also called wild type RecA; source: bought: New England Biolabs, used without further purification
On to B1, for which the binding result is given as “binds”.
